3 molecules from paper PMC10621737 can be followed below.

For this series, the target named is T1, rMtbEspR (Mycobacterium tuberculosis H37Rv, UniProt P9WJB7 1-132).
T1 sequence: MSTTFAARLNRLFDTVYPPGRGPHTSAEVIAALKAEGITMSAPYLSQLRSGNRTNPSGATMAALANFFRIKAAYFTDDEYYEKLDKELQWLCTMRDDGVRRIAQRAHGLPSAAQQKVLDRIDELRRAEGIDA
The experiment in a line: EMSA; poly(dI-dC) 50 ng/ml. The note with it: protein: recombinant; tags: N- and C-terminal 6xHis; chain copies: 2; label: 32P 5' end (T4 PNK); blunt. (In general: In EMSA bound probe runs differently from free probe, usually more slowly.)

B1: HIV LTR EMSA probe (dsDNA)
DNA 1: CAGTTGAACCAGAGCAAGTAGAAGAGGCC
DNA 2: GGCCTCTTCTACTTGCTCTGGTTCAACTG
For the molecule B1, the binding result is “no binding”.

B2: IL-4 promoter full EMSA probe (FL) (dsDNA)
DNA 1: CTATGCAAAGCAAAAAGCCAGCAGCAGCCCCAAGCTGATAAGATTAATCTAAAGAGCAAATTATGGTG
DNA 2: CACCATAATTTGCTCTTTAGATTAATCTTATCAGCTTGGGGCTGCTGCTGGCTTTTTGCTTTGCATAG
For B2, the binding result is given as “binds”.

B3: IFN-gamma promoter EMSA probe (dsDNA)
DNA 1: GAATTTCGTTTTTCACTTGTTCCCAACCACAAGCAAATGATCAATGT
DNA 2: ACATTGATCATTTGCTTGTGGTTGGGAACAAGTGAAAAACGAAATTC
B3: the binding result is listed as “no binding”.
